16 molecules from patent US20220073621A1 (EUCURE BEIJING BIOPHARMA, published 2022) can be followed below.

The labels stand for the following.
B1: 6A11-H1K3-IgG1 (antibody, V domains shown)
VH: EVQLVESGGGLVQPGGSLRLSCAASGFTFSSFGMHWVRQAPGKGLEWVSYISSGSNTIYYADTVKGRFTISRDNAKNSLYLQMNSLRAEDTAVYYCARNGYDGWYAMDYWGQGTTVTVSS
VL: EIVLTQSPATLSASPGERATLSCSASSSVSYIHWFQQKPGQSPRRWIYDTSKLASGIPARFSGSGSGTDYTLTISSMEPEDFATYYCQQWSTNPFTFGQGTKLEIKR
B2: 6A11-H1K4-IgG1 (antibody, V domains shown)
VH: EVQLVESGGGLVQPGGSLRLSCAASGFTFSSFGMHWVRQAPGKGLEWVSYISSGSNTIYYADTVKGRFTISRDNAKNSLYLQMNSLRAEDTAVYYCARNGYDGWYAMDYWGQGTTVTVSS
VL: EIVLTQSPATLSASPGERATLSCSASSSVSYIHWFQQKPGQSPRRWIYDTSKLASGIPARFSGSGSGTSYTLTISSMEPEDAATYYCQQWSTNPFTFGQGTKLEIKR
B3: 6A11-H4K3-IgG1 (antibody, V domains shown)
VH: EVQLVESGGGLVQPGGSRRLSCAASGFTFSSFGMHWVRQAPGKGLEWVAYISSGSNTIYYADTVKGRFTISRDNPKNSLYLQMNSLRAEDTAIYYCTRNGYDGWYAMDYWGQGTTVTVSS
VL: EIVLTQSPATLSASPGERATLSCSASSSVSYIHWFQQKPGQSPRRWIYDTSKLASGIPARFSGSGSGTDYTLTISSMEPEDFATYYCQQWSTNPFTFGQGTKLEIKR
B4: 6A11-H2K4-IgG1 (antibody, V domains shown)
VH: EVQLVESGGGLVQPGGSLRLSCAASGFTFSSFGMHWVRQAPGKGLEWVSYISSGSNTIYYADTVKGRFTISRDNAKNSLYLQMNSLRAEDTAVYYCTRNGYDGWYAMDYWGQGTTVTVSS
VL: EIVLTQSPATLSASPGERATLSCSASSSVSYIHWFQQKPGQSPRRWIYDTSKLASGIPARFSGSGSGTSYTLTISSMEPEDAATYYCQQWSTNPFTFGQGTKLEIKR
B5: 6A11-H4K4-IgG1 (antibody, V domains shown)
VH: EVQLVESGGGLVQPGGSRRLSCAASGFTFSSFGMHWVRQAPGKGLEWVAYISSGSNTIYYADTVKGRFTISRDNPKNSLYLQMNSLRAEDTAIYYCTRNGYDGWYAMDYWGQGTTVTVSS
VL: EIVLTQSPATLSASPGERATLSCSASSSVSYIHWFQQKPGQSPRRWIYDTSKLASGIPARFSGSGSGTSYTLTISSMEPEDAATYYCQQWSTNPFTFGQGTKLEIKR
B6: 6A11-H3K3-IgG1 (antibody, V domains shown)
VH: EVQLVESGGGLVQPGGSRRLSCAASGFTFSSFGMHWVRQAPGKGLEWVAYISSGSNTIYYADTVKGRFTISRDNAKNSLYLQMNSLRAEDTAVYYCTRNGYDGWYAMDYWGQGTTVTVSS
VL: EIVLTQSPATLSASPGERATLSCSASSSVSYIHWFQQKPGQSPRRWIYDTSKLASGIPARFSGSGSGTDYTLTISSMEPEDFATYYCQQWSTNPFTFGQGTKLEIKR
B7: 6A11-H3K4-IgG1 (antibody, V domains shown)
VH: EVQLVESGGGLVQPGGSRRLSCAASGFTFSSFGMHWVRQAPGKGLEWVAYISSGSNTIYYADTVKGRFTISRDNAKNSLYLQMNSLRAEDTAVYYCTRNGYDGWYAMDYWGQGTTVTVSS
VL: EIVLTQSPATLSASPGERATLSCSASSSVSYIHWFQQKPGQSPRRWIYDTSKLASGIPARFSGSGSGTSYTLTISSMEPEDAATYYCQQWSTNPFTFGQGTKLEIKR
B8: 7E4-H2K2-IgG1 (antibody, V domains shown)
VH: QVQLVQSGAEVKKPGASVKVSCKASGFKFTDYAIHWVRQAPGKSLEWMGVISIYYGEASYNQKFKDRVTLTVDTSASTAYMELSSLRSEDTAVYYCAREDYYGSSSYFDYWGQGTLVTVSS
VL: DNVLTQSPSFLSASVGDRVTMTCSASSSVSSSYLHWYQQKPGASPKPLIHRTSNLASGVPSRFSGSGSGTEFTLTISSLQPEDFATYYCQQWSGYPYTFGGGTKLEIK
B9: 7E4-H3K3-IgG1 (antibody, V domains shown)
VH: QVQLVQSGAEVVKPGASVKISCKGSGFKFTDYAIHWVRQAPGKSLEWMGVISIYYGEASYNQKFKDKVTLTVDTSASTAYMELSSLRSEDTAIYYCAREDYYGSSSYFDYWGQGTLLTVSS
VL: ENVLTQSPSFLSASVGDRVTMTCSASSSVSSSYLHWYQQKSGASPKPLIHRTSNLASGVPSRFSGSGSGTEYTLTISSVQPEDFATYYCQQWSGYPYTFGGGTKLEIK
B10: 7E4-H2K1-IgG1 (antibody, V domains shown)
VH: QVQLVQSGAEVKKPGASVKVSCKASGFKFTDYAIHWVRQAPGKSLEWMGVISIYYGEASYNQKFKDRVTLTVDTSASTAYMELSSLRSEDTAVYYCAREDYYGSSSYFDYWGQGTLVTVSS
VL: DNQLTQSPSFLSASVGDRVTITCSASSSVSSSYLHWYQQKPGAAPKPLIHRTSNLASGVPSRFSGSGSGTEFTLTISSLQPEDFATYYCQQWSGYPYTFGGGTKLEIK
B11: 7E4-H3K1-IgG1 (antibody, V domains shown)
VH: QVQLVQSGAEVVKPGASVKISCKGSGFKFTDYAIHWVRQAPGKSLEWMGVISIYYGEASYNQKFKDKVTLTVDTSASTAYMELSSLRSEDTAIYYCAREDYYGSSSYFDYWGQGTLLTVSS
VL: DNQLTQSPSFLSASVGDRVTITCSASSSVSSSYLHWYQQKPGAAPKPLIHRTSNLASGVPSRFSGSGSGTEFTLTISSLQPEDFATYYCQQWSGYPYTFGGGTKLEIK
B12: 7E4-H1K1-IgG1 (antibody, V domains shown)
VH: QVQLVQSGAEVKKPGASVKVSCKASGFKFTDYAIHWVRQAPGQSLEWMGVISIYYGEASYNQKFKDRVTLTVDTSASTAYMELSSLRSEDTAVYYCAREDYYGSSSYFDYWGQGTLVTVSS
VL: DNQLTQSPSFLSASVGDRVTITCSASSSVSSSYLHWYQQKPGAAPKPLIHRTSNLASGVPSRFSGSGSGTEFTLTISSLQPEDFATYYCQQWSGYPYTFGGGTKLEIK
B13: 7E4-H3K2-IgG1 (antibody, V domains shown)
VH: QVQLVQSGAEVVKPGASVKISCKGSGFKFTDYAIHWVRQAPGKSLEWMGVISIYYGEASYNQKFKDKVTLTVDTSASTAYMELSSLRSEDTAIYYCAREDYYGSSSYFDYWGQGTLLTVSS
VL: DNVLTQSPSFLSASVGDRVTMTCSASSSVSSSYLHWYQQKPGASPKPLIHRTSNLASGVPSRFSGSGSGTEFTLTISSLQPEDFATYYCQQWSGYPYTFGGGTKLEIK
B14: 7E4-H1K2-IgG1 (antibody, V domains shown)
VH: QVQLVQSGAEVKKPGASVKVSCKASGFKFTDYAIHWVRQAPGQSLEWMGVISIYYGEASYNQKFKDRVTLTVDTSASTAYMELSSLRSEDTAVYYCAREDYYGSSSYFDYWGQGTLVTVSS
VL: DNVLTQSPSFLSASVGDRVTMTCSASSSVSSSYLHWYQQKPGASPKPLIHRTSNLASGVPSRFSGSGSGTEFTLTISSLQPEDFATYYCQQWSGYPYTFGGGTKLEIK
B15: 7E4-H1K3-IgG1 (antibody, V domains shown)
VH: QVQLVQSGAEVKKPGASVKVSCKASGFKFTDYAIHWVRQAPGQSLEWMGVISIYYGEASYNQKFKDRVTLTVDTSASTAYMELSSLRSEDTAVYYCAREDYYGSSSYFDYWGQGTLVTVSS
VL: ENVLTQSPSFLSASVGDRVTMTCSASSSVSSSYLHWYQQKSGASPKPLIHRTSNLASGVPSRFSGSGSGTEYTLTISSVQPEDFATYYCQQWSGYPYTFGGGTKLEIK
B16: 7E4-H2K3-IgG1 (antibody, V domains shown)
VH: QVQLVQSGAEVKKPGASVKVSCKASGFKFTDYAIHWVRQAPGKSLEWMGVISIYYGEASYNQKFKDRVTLTVDTSASTAYMELSSLRSEDTAVYYCAREDYYGSSSYFDYWGQGTLVTVSS
VL: ENVLTQSPSFLSASVGDRVTMTCSASSSVSSSYLHWYQQKSGASPKPLIHRTSNLASGVPSRFSGSGSGTEYTLTISSVQPEDFATYYCQQWSGYPYTFGGGTKLEIK

The target in the assay is T1, hPD-L1-His (human, UniProt Q9NZQ7 19-238).
T1 construct: Bought protein; also called hPD-L1-His (manufactured by Edison); not shown: His tag
T1 sequence (Q9NZQ7 19-238 limits assumed): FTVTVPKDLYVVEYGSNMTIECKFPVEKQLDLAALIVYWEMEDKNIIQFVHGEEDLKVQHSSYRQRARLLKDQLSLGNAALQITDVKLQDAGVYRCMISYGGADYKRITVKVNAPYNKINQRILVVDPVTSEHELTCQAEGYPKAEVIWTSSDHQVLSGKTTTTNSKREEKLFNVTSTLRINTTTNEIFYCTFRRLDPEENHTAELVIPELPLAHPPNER
Description: SPR (Biacore T200), antibody on Protein A chip, hPD-L1-His injected, 1:1 fit. The protocol: Subsequently, the binding affinity of the anti-PD-L1 chimeric antibody, humanized antibody, and marketed control antibody to hPD-L1-His (manufactured by Edison) were determined by surface plasmon resonance (Biacore T200 biosensor, Biacore, INC, Piscataway N.J.) equipped with pre-immobilized Protein A sensor chips.
The detection results were read after the chip was regenerated with pH 2.0 glycine (30 μl/min, 10-20 s). Kinetic association rates (kon) and dissociation rates (koff) were obtained simultaneously by fitting the data globally to a 1:1 Langmuir binding model (Karlsson, R. Roos, H. Fagerstam, L. Petersson, B., 1994. Methods Enzymology 6. 99-110) using Biacore T200 Evaluation Software 3.0. Affinities were deduced from the quotient of the kinetic rate constants (KD=koff/kon).
(Surface plasmon resonance follows binding to a sensor surface in real time, without labels.)
A word on the Kd: it is the constant that tells how readily two partners part at equilibrium. A high value points to lower affinity. The koff is the rate constant with which the complex falls apart. Read a low koff as slow dissociation. Usually kon stands for a measure of how fast the partners come together. With B1, binding was characterised by a dissociation constant (Kd) of 7.8 nM, the koff was determined as 0.00113 s⁻¹ and the on-rate (kon) was found to be 145000 M⁻¹ s⁻¹.

B2 registered a Kd of 8.29 nM, a koff of 0.00124 s⁻¹ and a kon of 149000 M⁻¹ s⁻¹.

Consider B3, for which the Kd stood at 7.09 nM, the koff was found to be 0.00165 s⁻¹ and the kon turned out to be 233000 M⁻¹ s⁻¹.

With B4, the Kd was 7.01 nM, the koff worked out at 0.00153 s⁻¹ and the kon was 218000 M⁻¹ s⁻¹.

In turn, B5 yielded a Kd of 9.59 nM, a koff of 0.002 s⁻¹ and a kon of 208000 M⁻¹ s⁻¹.

In turn, B6 came in with a Kd of 4.91 nM, a koff of 0.0013 s⁻¹ and a kon of 265000 M⁻¹ s⁻¹.

Molecule B7 had a Kd of 6.52 nM, a koff of 0.00168 s⁻¹ and a kon of 258000 M⁻¹ s⁻¹.

Take B8: binding was characterised by a dissociation constant (Kd) of 21.9 nM, the dissociation rate constant (koff) stood at 0.0027 s⁻¹ and the kon amounted to 123000 M⁻¹ s⁻¹.

B9 gave a Kd of 14.5 nM, a koff of 0.00218 s⁻¹ and a kon of 150000 M⁻¹ s⁻¹.

On to B10, for which the Kd was determined as 27 nM, the koff was determined as 0.00344 s⁻¹ and the kon came to 128000 M⁻¹ s⁻¹.

B11: binding was put at a Kd of 23.9 nM, the koff stood at 0.00352 s⁻¹ and the kon amounted to 147000 M⁻¹ s⁻¹.

As for B12, the affinity, expressed as Kd, was 26.5 nM; the koff amounted to 0.00313 s⁻¹; the kon was determined as 118000 M⁻¹ s⁻¹.

Take B13: the Kd came out at 19.3 nM, the koff worked out at 0.00299 s⁻¹ and the kon came to 155000 M⁻¹ s⁻¹.

As to B14, the Kd worked out at 19.8 nM, the koff came out at 0.0025 s⁻¹ and the kon was found to be 126000 M⁻¹ s⁻¹.

Take B15: the Kd stood at 13.3 nM, the koff stood at 0.0017 s⁻¹ and the kon worked out at 128000 M⁻¹ s⁻¹.

Turning to B16, the Kd is 12.7 nM, the koff came to 0.00163 s⁻¹ and the kon is 128000 M⁻¹ s⁻¹.
